Source: paper PMC3319151 (Journal of Molecular Biology, 2009)
Where no end group is shown, it is not given here. The star is where a group is joined. 5FAM = O=C1OC2(c3ccc(O)cc3Oc3cc(O)ccc32)c2ccc(C(=O)*)cc21

How the values were obtained:
[1] = molecular target: WFHVEED peptide (synthetic construct); experiment: fluorescence polarization; details: cited from earlier work
(FAM)-AWFHVEED peptide = experiment: fluorescence polarisation
GST-CA150 FF1-3 = molecular target: T1, GST-CA150 FF1-3 (human, UniProt O14776 661-845); experiment: fluorescence polarization
T1 sequence: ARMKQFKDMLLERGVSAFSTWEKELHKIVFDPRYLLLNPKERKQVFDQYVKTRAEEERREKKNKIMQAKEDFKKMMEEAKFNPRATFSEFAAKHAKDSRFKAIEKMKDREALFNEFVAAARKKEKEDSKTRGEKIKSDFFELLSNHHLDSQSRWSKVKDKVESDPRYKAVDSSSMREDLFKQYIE

CA150 FF1-3 wild-type = molecular target: T2, CA150 FF1-3 wild-type (human, UniProt O14776 661-845); experiment: fluorescence polarization
T2 sequence: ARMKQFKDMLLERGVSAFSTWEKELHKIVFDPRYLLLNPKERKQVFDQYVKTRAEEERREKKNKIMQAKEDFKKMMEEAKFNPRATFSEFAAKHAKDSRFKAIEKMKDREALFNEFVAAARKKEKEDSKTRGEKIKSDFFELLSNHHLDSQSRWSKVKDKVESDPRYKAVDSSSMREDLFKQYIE

[2] = molecular target: T3, CA150 FF1-3 (human CA150 residues 661-845), GST cleaved off (human, UniProt O14776 661-845); experiment: fluorescence polarisation
T3 sequence: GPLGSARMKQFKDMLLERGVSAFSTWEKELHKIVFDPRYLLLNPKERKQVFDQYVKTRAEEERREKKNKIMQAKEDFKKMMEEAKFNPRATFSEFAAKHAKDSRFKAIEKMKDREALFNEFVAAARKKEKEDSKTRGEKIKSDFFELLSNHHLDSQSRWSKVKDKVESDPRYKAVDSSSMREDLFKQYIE

Molecule: CA150 (GST-FF1-3) FF1-3 (from UniProt O14776)
- Kd [1]: 48 µM

Molecule: GST alone
- Kd ((FAM)-AWFHVEED peptide): > 740 µM

B1: MATa1/MATalpha2 duplex of Ke et al. (dsDNA)
DNA 1: ACATGTAAAAATTTACATCA
DNA 2: TTGATGTAAATTTTTACATG
- Kd (GST-CA150 FF1-3): 0.52 ± 0.06 µM
- Kd (CA150 FF1-3 wild-type): 3.87 ± 0.31 µM

Molecule: 5FAM-AWFHVEED [(FAM)-AWFHVEED peptide]
- Kd [2]: > 400 µM
